Reference: paper PMC12440826, “Shigella flexneri evades LPS ubiquitylation through IpaH1.4-mediated degradation of RNF213” (Nature Structural & Molecular Biology, 2025)

Biological target: T1, 2×Strep–RNF213 (WT human RNF213) (human, UniProt Q63HN8 1-5207)
T1 construct: RNF213, human E3 ubiquitin ligase; plasmid pOP806_pACEBac1 2×Strep–RNF213; the N terminus (residues 1–398) is not resolved in the maps; source: Sf9, purified (StrepTrap HP)
Assay: cryo-EM structure; RNF213 (around 2 μM) mixed with a fivefold molar excess of IpaH1.4/2.5 (10 μM), incubated on ice for 30 min, vitrified on all-gold grids
Details: both partners purified

T1 sequence (Q63HN8 whole entry, the tested form may be a part): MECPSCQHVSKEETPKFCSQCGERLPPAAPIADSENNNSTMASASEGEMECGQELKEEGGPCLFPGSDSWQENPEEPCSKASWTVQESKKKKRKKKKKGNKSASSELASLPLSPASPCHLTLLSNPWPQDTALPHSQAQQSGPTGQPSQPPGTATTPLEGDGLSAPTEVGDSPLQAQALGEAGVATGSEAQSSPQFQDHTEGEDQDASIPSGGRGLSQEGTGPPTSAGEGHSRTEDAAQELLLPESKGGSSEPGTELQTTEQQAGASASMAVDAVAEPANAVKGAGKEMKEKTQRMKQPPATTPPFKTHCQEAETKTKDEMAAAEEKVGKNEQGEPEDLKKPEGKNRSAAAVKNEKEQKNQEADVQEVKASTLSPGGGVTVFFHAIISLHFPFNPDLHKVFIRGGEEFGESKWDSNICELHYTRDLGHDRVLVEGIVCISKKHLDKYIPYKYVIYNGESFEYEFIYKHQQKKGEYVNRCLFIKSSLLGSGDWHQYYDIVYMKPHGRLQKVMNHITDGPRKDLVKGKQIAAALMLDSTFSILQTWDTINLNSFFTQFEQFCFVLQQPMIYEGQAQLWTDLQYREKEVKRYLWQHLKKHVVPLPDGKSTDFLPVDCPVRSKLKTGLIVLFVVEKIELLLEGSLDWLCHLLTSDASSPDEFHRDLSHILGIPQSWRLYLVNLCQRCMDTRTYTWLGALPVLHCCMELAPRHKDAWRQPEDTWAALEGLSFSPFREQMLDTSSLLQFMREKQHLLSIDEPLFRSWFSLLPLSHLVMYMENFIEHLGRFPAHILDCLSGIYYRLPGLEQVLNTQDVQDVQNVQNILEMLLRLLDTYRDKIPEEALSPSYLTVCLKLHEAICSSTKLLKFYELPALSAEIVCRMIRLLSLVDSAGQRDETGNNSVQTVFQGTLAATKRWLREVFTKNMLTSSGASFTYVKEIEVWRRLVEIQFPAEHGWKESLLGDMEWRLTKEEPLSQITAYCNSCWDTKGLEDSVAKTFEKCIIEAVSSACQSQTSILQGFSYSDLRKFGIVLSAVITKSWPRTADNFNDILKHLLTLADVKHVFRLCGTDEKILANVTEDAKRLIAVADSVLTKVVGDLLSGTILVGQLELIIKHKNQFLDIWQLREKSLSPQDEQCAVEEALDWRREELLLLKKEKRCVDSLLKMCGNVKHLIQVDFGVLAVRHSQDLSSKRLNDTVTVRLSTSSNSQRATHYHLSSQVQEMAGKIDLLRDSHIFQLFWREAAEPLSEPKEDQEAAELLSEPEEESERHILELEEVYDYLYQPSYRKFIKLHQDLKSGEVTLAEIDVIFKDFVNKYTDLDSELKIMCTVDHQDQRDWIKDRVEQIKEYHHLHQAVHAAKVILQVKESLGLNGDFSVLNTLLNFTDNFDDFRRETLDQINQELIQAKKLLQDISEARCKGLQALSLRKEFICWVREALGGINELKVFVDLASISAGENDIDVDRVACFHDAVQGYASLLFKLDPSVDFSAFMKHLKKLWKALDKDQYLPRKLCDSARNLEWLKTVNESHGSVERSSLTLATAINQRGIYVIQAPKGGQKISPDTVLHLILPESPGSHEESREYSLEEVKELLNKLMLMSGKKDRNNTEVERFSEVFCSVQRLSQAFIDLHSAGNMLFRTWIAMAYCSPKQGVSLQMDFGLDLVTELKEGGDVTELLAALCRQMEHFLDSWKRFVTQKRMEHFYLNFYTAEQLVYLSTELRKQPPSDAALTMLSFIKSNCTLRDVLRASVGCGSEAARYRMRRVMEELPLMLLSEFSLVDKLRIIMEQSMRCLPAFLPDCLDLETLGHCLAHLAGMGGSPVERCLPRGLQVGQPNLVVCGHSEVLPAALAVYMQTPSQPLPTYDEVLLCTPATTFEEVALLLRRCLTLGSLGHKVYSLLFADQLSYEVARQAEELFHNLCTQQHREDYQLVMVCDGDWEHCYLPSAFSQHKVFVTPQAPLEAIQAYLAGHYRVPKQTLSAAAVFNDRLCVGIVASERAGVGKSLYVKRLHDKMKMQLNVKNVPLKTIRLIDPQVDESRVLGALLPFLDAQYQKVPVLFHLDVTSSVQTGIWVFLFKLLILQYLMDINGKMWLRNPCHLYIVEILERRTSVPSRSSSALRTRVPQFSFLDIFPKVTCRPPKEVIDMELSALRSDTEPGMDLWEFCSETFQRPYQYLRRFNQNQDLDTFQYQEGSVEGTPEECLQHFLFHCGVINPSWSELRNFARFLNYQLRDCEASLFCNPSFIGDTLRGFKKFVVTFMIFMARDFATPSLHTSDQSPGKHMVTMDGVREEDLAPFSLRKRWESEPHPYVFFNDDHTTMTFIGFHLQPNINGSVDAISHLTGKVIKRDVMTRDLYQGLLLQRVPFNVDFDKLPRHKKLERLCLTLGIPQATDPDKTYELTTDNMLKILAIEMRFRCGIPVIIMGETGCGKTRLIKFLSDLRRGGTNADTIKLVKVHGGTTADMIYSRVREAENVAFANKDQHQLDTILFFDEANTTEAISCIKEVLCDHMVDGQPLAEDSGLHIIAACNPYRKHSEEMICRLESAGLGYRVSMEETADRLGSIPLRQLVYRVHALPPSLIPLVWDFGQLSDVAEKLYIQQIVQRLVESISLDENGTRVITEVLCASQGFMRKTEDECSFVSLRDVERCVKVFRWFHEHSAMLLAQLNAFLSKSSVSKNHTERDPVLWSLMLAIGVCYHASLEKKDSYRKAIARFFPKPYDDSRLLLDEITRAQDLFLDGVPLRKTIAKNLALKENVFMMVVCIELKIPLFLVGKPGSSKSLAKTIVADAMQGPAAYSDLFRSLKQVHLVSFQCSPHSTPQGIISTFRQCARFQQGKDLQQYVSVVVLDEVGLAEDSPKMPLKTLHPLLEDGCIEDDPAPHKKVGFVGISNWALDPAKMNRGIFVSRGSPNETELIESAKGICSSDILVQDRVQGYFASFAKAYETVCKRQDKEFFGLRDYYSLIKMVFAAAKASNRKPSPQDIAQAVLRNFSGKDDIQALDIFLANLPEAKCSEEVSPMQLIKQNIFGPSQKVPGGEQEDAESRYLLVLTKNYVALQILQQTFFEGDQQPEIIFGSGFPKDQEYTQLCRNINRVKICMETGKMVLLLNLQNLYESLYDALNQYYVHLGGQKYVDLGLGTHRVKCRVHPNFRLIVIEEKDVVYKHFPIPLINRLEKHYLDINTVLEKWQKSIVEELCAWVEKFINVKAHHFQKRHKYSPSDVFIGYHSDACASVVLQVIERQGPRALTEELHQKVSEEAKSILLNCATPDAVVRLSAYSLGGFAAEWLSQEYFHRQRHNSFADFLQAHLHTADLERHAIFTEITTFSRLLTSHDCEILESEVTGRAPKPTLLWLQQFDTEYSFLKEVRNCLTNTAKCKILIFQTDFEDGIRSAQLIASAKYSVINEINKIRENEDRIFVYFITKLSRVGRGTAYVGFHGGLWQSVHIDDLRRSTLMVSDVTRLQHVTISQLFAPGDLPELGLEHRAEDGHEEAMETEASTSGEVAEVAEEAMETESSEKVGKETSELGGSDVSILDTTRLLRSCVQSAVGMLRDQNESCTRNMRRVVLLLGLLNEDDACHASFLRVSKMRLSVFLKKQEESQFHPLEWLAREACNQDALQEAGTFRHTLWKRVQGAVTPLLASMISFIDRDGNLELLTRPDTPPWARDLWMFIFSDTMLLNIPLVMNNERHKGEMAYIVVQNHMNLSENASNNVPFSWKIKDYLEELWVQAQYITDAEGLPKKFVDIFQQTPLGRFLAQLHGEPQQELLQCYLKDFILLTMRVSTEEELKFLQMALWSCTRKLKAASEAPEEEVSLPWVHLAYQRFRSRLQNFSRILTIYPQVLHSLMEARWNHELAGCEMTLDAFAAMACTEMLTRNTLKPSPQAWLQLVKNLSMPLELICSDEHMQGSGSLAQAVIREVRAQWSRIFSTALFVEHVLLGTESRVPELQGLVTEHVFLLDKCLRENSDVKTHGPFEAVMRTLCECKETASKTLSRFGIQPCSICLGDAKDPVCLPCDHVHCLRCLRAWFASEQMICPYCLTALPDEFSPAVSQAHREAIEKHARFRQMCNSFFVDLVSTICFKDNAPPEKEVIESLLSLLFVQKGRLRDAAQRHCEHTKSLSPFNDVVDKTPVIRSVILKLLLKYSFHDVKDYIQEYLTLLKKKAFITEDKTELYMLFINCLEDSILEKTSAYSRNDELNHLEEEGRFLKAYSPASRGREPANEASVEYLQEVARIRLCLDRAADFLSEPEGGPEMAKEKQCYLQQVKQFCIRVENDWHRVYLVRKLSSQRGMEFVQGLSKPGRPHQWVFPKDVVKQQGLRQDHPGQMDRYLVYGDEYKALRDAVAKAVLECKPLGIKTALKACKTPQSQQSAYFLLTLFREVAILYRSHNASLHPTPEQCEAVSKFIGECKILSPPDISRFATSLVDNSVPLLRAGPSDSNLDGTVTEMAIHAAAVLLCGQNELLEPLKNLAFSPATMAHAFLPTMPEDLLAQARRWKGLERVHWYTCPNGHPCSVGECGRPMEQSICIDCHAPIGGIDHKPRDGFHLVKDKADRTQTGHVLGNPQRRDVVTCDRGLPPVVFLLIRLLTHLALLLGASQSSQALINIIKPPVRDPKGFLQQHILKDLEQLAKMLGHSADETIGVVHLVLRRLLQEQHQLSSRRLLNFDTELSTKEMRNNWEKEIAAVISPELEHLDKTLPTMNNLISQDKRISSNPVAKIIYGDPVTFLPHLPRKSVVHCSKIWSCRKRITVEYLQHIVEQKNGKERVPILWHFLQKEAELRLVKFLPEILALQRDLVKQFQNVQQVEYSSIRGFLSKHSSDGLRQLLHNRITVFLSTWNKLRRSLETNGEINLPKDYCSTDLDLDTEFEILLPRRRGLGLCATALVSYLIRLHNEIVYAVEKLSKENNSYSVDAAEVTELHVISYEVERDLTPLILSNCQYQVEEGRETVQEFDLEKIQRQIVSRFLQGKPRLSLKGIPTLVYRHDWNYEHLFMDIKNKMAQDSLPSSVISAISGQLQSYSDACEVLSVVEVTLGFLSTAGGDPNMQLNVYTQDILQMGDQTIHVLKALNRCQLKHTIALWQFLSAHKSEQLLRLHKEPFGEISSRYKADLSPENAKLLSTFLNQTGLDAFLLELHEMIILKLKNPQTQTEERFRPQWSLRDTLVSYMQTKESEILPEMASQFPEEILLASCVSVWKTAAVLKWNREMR

B1: IpaH1.4 (untagged, recombinant) (enzyme)
chain: MIKSTNIQAIGSGIMHQINNVYSLTPLSLPMELTPSCNEFYLKTWSEWEKNGTPGEQRNIAFNRLKICLQNQEAELNLSELDLKTLPDLPPQITTLEIRKNLLTHLPDLPPMLKVIHAQFNQLESLPALPETLEELNAGDNKIKELPFLPENLTHLRVHNNRLHILPLLPPELKLLVVSGNRLDSIPPFPDKLEGLALANNFIEQLPELPFSMNRAVLMNNNLTTLPESVLRLAQNAFVNVAGNPLSGHTMRTLQQITTGPDYSGPQIFFSMGNSATISAPEHSLADAVTAWFPENKQSDVSQIWHAFEHEEHANTFSAFLDRLSDTVSARNTSGFREQVAAWLEKLSASAELRQQSFAVAADATESCEDRVALTWNNLRKTLLVHQASEGLFDNDTGALLSLGREMFRLEILEDIARDKVRTLHFVDEIEVYLAFQTMLAEKLQLSTAVKEMRFYGVSGVTANDLRTAEAMVRSREENEFTDWFSLWGPWHAVLKRTEADRWAQAEEQKYEMLENEYSQRVADRLKASGLSGDADAEREAGAQVMRETEQQIYRQLTDEVLALRLSENGSNHIA
notes: IpaH1.4, secreted E3 ubiquitin ligase effector of Shigella flexneri; open reading frame cloned into pETM-30; only the LRR domain is resolved in the map; also called WT IpaH1.4; not shown: 6xHis, N-terminal, cleaved; GST, N-terminal, cleaved
  binding result: binds
